Consider four molecules from US20090170219, “Nucleic acid capable of binding to immunoglobulin G and use thereof” (published 2009).

One data set addresses IgG (rabbit, UniProt P01870 P01870:1-323). In words: SPR. As to conditions: tags: Zymed Laboratories, chain copies: 2, label: 3' A16 tail for immobilisation. How it is done:
(§1) Used for the measurements was BIAcore 2000 manufactured by BIAcore. Used as the sensor chip was the SA chip having streptavidin immobilized thereon. Bound thereto was about 1000 RU of 16-residue Poly dT having biotin bound to the 5′ end thereof. The RNA for use as the ligand had 16-residue Poly A added to the 3′ end thereof, and immobilized to the SA chip via a bond between dT and A. The amount immobilized was adjusted to about 1000 RU by injecting 60 μL at a concentration of 0.01 μg/μL. 70 μL of IgG-Fc for analyte (manufactured by Athens Research & Technology), adjusted to 0.6 μM, was injected. The running buffer used had the same components as those of the solution A used in SELEX.
(§2) Whether or not the prepared RNA aptamers also have binding affinity for subclasses of IgG other than human IgG1 or for IgG of animal species other than humans was determined using a surface plasmon resonance method. Measurements were performed in the same manner as Example 1 by immobilizing a nucleic acid having 16-residue Poly A added thereto via an A-pT bond, and injecting IgG thereto. Used as the RNA aptamers were the nucleic acids shown by SEQ ID NO:1 and 17. Used as the antibodies were human IgG1 (manufactured by Calbiochem), human IgG2 (manufactured by Calbiochem), human IgG3 (manufactured by Calbiochem), human IgG4 (manufactured by Calbiochem), mouse IgG1 (manufactured by Chemicon International), mouse IgG2a (manufactured by Chemicon International), mouse IgG2b (manufactured by Zymed Laboratories), mouse IgG3 (manufactured by Bethyl Laboratories), rat IgG1 (manufactured by R & D Systems), rat IgG2a. (manufactured by Zymed Laboratories), rat IgG2b. (manufactured by Zymed Laboratories), rat IgG2c (manufactured by UK-Serotec), rabbit IgG (manufactured by Zymed Laboratories), bovine IgG1 (manufactured by Bethyl Laboratories), bovine IgG2 (manufactured by Bethyl Laboratories), chicken IgG (manufactured by Rockland), dog IgG (manufactured by Rockland), cat IgG (manufactured by Bethyl Laboratories), guinea pig IgG (manufactured by Biogenesis), hamster IgG (manufactured by Rockland), and swine IgG (manufactured by Rockland).

A further data set addresses IgG4 (human, UniProt P01861-1 P01861-1:99-327). The data set is described as follows: SPR. The conditions noted are these: tags: Calbiochem, chain copies: 2, label: 3' A16 tail for immobilisation. The procedure:
as §1, §2

The next data set concerns the target IgG2b (mouse, UniProt P01867-2 P01867-2:98-335). The data set is described as follows: SPR. As to conditions: tags: Zymed Laboratories, chain copies: 2, label: 3' A16 tail for immobilisation. The procedure: as §1, §2
A further data set addresses IgG2c (rat, UniProt P20762 P20762:1-329). The data set is described as follows: SPR. The conditions noted are these: tags: UK-Serotec, chain copies: 2, label: 3' A16 tail for immobilisation. The procedure: as §1, §2
For a further data set, the target named is IgG2 (human, UniProt P01859-1 P01859-1:99-326). In words: SPR. As to conditions: tags: Calbiochem, chain copies: 2, label: 3' A16 tail for immobilisation. How it is done: as §1, §2
In the next data set the target is IgG2a (mouse, UniProt P01863 P01863:98-330). In words: SPR. The conditions noted are these: tags: Chemicon International, chain copies: 2, label: 3' A16 tail for immobilisation. The procedure:
as §1, §2

A further data set addresses IgG3 (human, UniProt P01860-1 P01860-1:99-377). In words: SPR. As to conditions: tags: Calbiochem, chain copies: 2, label: 3' A16 tail for immobilisation. The procedure:
as §1, §2

Data set [1] deals with T1, IgG1 (human, UniProt P01857-1 P01857-1:1-330). The data set is described as follows: SPR; solution A: 145 mM NaCl, 5.4 mM KCl, 1.8 mM CaCl2, 0.8 mM MgCl2, 20 mM Tris pH 7.6. As to conditions: tags: Calbiochem; chain copies: 2; label: 3' A16 tail for immobilisation; GGUGCU bulge. How it is done: as §1
The dissociation constant was determined by immobilizing an RNA having 16-residue PolyA added to the 3′ end thereof onto a sensor chip via an A-dT bond, injecting different concentrations of IgG (0.6 μM to 0.05 μM), and performing surface plasmon resonance.
Background: Surface plasmon resonance follows binding to a sensor surface in real time, without labels.

In a further data set the target is Protein A (UniProt P02976 P02976:37-485). In words: SPR; control; Protein A bound only when IgG1 was on the aptamer. As to conditions: tags: MP Biomedicals; label: 3' A16 tail for immobilisation; GGUGCU bulge. How it is done: as §1
The target of data set [2] is T1, IgG1. The data set is described as follows: SPR; solution A; short aptamers fit bivalent 1:2 model better. As to conditions: tags: Calbiochem; chain copies: 2; label: 3' A16 tail for immobilisation.
For data set [3], the target named is T1, IgG1. The data set is described as follows: SPR; +++ in Table 4; binding not reduced in 500 mM NaCl, 2 mM MgCl2. The conditions noted are these: tags: Calbiochem; chain copies: 2.
Data set [4] addresses T1, IgG1. The data set is described as follows: SPR; text says higher than SEQ 17, table shows equal. As to conditions: tags: Calbiochem; chain copies: 2. How it is done:
as §1
The RNAs were prepared by chemical synthesis (manufactured by Gene Design). Their binding affinities were measured by a surface plasmon resonance method as in Example 1. Used as the IgG was human IgG1 (manufactured by Calbiochem).

T1 sequence (P01857 other isoform, or with tags, fused parts or gaps): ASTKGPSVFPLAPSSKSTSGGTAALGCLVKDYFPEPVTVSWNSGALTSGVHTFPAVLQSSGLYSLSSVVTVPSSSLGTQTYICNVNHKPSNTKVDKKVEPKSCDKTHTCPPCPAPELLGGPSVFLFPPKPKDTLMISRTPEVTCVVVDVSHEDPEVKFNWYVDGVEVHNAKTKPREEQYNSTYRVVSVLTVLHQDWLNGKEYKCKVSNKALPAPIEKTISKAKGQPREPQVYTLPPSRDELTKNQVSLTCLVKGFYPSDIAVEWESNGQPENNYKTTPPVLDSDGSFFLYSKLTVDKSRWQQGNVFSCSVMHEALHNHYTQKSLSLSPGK
Sequence of IgG (P01870 whole entry, one chain of several): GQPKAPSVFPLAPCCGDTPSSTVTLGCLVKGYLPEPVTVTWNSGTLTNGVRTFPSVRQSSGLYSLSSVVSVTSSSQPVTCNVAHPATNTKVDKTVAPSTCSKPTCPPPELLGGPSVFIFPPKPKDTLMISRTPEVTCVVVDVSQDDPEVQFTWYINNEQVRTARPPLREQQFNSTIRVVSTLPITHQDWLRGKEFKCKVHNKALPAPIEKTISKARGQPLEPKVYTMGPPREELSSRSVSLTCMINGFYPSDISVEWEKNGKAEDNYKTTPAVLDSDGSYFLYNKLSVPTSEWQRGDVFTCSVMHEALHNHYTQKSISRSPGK
Sequence of IgG2c (P20762 whole entry, one chain of several): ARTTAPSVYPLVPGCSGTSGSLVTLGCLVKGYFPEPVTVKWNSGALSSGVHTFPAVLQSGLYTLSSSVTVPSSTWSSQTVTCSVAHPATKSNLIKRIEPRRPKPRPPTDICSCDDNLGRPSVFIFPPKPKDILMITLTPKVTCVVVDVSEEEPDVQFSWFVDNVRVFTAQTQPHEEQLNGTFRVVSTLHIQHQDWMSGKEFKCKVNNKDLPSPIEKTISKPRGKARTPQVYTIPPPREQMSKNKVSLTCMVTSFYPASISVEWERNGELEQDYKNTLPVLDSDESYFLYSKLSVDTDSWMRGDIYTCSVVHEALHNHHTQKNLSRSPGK
Sequence of IgG2 (P01859 other isoform, or with tags, fused parts or gaps): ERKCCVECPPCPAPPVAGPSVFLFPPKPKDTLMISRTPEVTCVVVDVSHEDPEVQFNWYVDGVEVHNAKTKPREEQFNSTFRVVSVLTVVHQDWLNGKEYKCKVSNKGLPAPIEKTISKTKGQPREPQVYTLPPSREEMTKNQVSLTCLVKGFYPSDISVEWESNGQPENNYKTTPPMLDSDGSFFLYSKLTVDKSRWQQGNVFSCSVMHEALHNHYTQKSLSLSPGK
Sequence of IgG3 (P01860 other isoform, or with tags, fused parts or gaps): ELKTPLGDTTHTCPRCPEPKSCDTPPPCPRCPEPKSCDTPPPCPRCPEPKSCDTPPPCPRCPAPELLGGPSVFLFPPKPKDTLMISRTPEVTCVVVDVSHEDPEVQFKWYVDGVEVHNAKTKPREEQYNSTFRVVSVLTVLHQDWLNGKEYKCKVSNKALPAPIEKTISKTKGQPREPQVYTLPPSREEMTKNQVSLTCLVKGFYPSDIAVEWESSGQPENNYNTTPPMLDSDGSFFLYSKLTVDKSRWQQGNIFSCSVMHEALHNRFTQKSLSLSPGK
Sequence of IgG4 (P01861 other isoform, or with tags, fused parts or gaps): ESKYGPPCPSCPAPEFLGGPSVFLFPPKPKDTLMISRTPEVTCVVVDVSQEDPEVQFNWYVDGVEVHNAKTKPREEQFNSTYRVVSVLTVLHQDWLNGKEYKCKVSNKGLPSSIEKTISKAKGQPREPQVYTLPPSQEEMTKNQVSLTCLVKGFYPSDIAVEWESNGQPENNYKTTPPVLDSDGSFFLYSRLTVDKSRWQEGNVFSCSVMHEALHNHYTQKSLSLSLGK
Sequence of IgG2a (P01863 98-330, one chain of several): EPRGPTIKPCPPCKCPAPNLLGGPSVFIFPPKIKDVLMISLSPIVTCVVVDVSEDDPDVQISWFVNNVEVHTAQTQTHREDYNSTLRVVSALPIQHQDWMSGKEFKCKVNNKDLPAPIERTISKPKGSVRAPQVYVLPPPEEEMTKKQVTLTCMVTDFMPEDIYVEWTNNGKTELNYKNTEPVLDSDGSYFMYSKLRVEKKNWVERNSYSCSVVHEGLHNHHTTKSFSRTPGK
Sequence of IgG2b (P01867 other isoform, or with tags, fused parts or gaps): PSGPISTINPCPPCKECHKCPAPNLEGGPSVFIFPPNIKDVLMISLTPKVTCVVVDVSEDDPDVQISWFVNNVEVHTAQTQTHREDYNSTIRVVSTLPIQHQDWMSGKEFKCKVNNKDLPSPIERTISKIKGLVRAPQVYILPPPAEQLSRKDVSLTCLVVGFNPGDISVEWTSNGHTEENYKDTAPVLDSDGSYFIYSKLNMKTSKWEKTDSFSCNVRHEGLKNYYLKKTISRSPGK
Sequence of Protein A (P02976 37-485, one chain of several): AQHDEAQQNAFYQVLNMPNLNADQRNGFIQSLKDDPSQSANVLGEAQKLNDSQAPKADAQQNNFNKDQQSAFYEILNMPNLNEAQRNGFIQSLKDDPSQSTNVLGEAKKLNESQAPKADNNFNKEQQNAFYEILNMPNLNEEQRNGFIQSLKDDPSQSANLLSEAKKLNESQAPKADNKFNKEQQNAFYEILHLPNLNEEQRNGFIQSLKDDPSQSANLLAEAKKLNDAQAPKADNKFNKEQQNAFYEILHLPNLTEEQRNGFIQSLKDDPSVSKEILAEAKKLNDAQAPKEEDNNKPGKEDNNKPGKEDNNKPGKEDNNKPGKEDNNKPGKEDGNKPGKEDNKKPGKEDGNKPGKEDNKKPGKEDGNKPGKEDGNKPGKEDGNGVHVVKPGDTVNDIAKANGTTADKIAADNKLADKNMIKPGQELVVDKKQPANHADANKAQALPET

B1: SEQ ID NO:1 (ssRNA)
RNA: GGGACACAAUGGACGAGUUACAGGUGCUCCAUCAACAAAAUGUUACAUGGAACUGUAACGGCCGACAUGAGAG
modifications: 2'-F at all pyrimidines
For B1, the binding result with IgG (GGUGCU bulge) is listed as “no binding”; with IgG4 (GGUGCU bulge), “binds”; with IgG2b (GGUGCU bulge) it was “no binding”; with IgG2c (GGUGCU bulge), “no binding”; in the data set with IgG2 (GGUGCU bulge), “binds”; with IgG2a (GGUGCU bulge) it was “no binding”. For the same molecule, the values for the binding result in the data set with IgG3 (GGUGCU bulge) and with Protein A were “binds” and “no binding”, respectively. This molecule also returned a Kd with IgG1 [1] of 0.3 nM.

B2: SEQ ID NO:17 (ssRNA)
RNA: GGAGGUGCUCCGAAAGGAACUCC
modifications: 2'-F at all pyrimidines
With B2, the binding result with IgG was “no binding”; with IgG4, “binds”; in the data set with IgG2b, “no binding”; with IgG2c, “no binding”; with IgG2, “binds”; in the data set with IgG2a, “no binding”. For the same molecule, the binding result with IgG3 is listed as “binds”. Moreover, in the data set with IgG1 [2], the Kd worked out at 10 nM.

B3: SEQ ID NO:17-7 (23F23) (mixed)
RNA: GGAGGUGCUCCGAAAGGAACUCCAAAAAAAAAAAAAAAA
modifications: deoxy G1 G2 C8 C10 C11 G12-A15 A18 A19 C22 C23 and A16 tail; 2'-F U6 U9 C20 U21; rest 2'-OH
With B3, the binding result in the data set with IgG1 [3] is “binds”.

B4: SEQ ID NO:17-9 (23F32) (mixed)
RNA: GGAGGUGCUCCGAAAGGAACUCCAAAAAAAAAAAAAAAA
modifications: as 17-7 with 2'-OMe G16
In the case of B4, the binding result in the data set with IgG1 [4] is given as “binds”.
